The values that follow come from patent publication US20170165337A1 (IMMATICS BIOTECHNOLOGIES, published 2017).

This assay has as its target T1, HLA-A*02:01 (human).
T1 construct: MHC class I monomer of the UV-ligand exchange assay; also called peptide-receptive MHC molecules; MHC class I
The assay is described as follows: UV peptide-exchange ELISA. An excerpt: Candidate peptides for T cell based therapies according to the present invention were further tested for their MHC binding capacity (affinity). The individual peptide-MHC complexes were produced by UV-ligand exchange, where a UV-sensitive peptide is cleaved upon UV-irradiation, and exchanged with the peptide of interest as analyzed. Only peptide candidates that can effectively bind and stabilize the peptide-receptive MHC molecules prevent dissociation of the MHC complexes. To determine the yield of the exchange reaction, an ELISA was performed based on the detection of the light chain (β2m) of stabilized MHC complexes. The assay was performed as generally described in Rodenko et al. (Rodenko et al., 2006).
96 well MAXISorp plates (NUNC) were coated over night with 2 ug/ml streptavidin in PBS at room temperature, washed 4× and blocked forl h at 37° C. in 2% BSA containing blocking buffer. Refolded HLA-A*02:01/MLA-001 monomers served as standards, covering the range of 15-500 ng/ml. Peptide-MHC monomers of the UV-exchange reaction were diluted 100 fold in blocking buffer. Samples were incubated for 1 h at 37° C., washed four times, incubated with 2 ug/ml HRP conjugated anti-β2m for 1 h at 37° C., washed again and detected with TMB solution that is stopped with […]. Absorption was measured at 450 nm. Candidate peptides that show a high exchange yield (preferably higher than 50%, most preferred higher than 75%) are generally preferred for a generation and production of antibodies or fragments thereof, and/or T cell receptors or fragments thereof, as they show sufficient avidity to the MHC molecules and prevent dissociation of the MHC complexes.

As for FMHQIIDQV, the peptide exchange yield is ≥ 75%.
In the case of GLQENLDVVV, the peptide exchange yield is ≥ 75%.
In turn, ILLGIQELL registered a peptide exchange yield of 50 to 75%.
LLVQEPDGLMV yielded a peptide exchange yield of 50 to 75%.
Regarding ALWELSLKI, the peptide exchange yield fell in the range of 50 to 75%.
To GLDDAEYAL belongs 20 to 50%.
To ALWVSQPPEI belongs 50 to 75%.
ALYLTEVFL: the peptide exchange yield is ≥ 75%.
KLDETGVAL: the peptide exchange yield is 20 to 50%.
ILAGEMLSV registered a peptide exchange yield of 50 to 75%.
Consider WLAGDVPAA, for which the peptide exchange yield was 50 to 75%.
To KTVEPPISQV belongs 20 to 50%.
Consider ILQALAVHL, for which the peptide exchange yield lay within 50 to 75%.
ALWAGLLTL returned a peptide exchange yield of 50 to 75%.
LLPTGVFQV: the peptide exchange yield fell in the range of 50 to 75%.
To ALPEILFAKV belongs 50 to 75%.
The molecule AMEALVVEV had a peptide exchange yield of 50 to 75%.
Turning to AMNISVPQV, the peptide exchange yield lay in the range of 50 to 75%.
On to LLYDNVPGA, for which the peptide exchange yield lay in the range of 50 to 75%.
In the case of KIMDYSLLLGV, the peptide exchange yield is ≥ 75%.
VMQDIVYKL yielded a peptide exchange yield of 50 to 75%.
As to AMAGDVVYA, the peptide exchange yield lay within 50 to 75%.
ALDEPPYLTV: the peptide exchange yield was in the range of 50 to 75%.
Molecule RLLDEQFAVL yielded a peptide exchange yield of 50 to 75%.
ILPTLEKELFL yielded a peptide exchange yield of 50 to 75%.
To FLAEASVMTQL belongs 50 to 75%; to GLDDLLLFL, 50 to 75%; to ALGEEWKGYVV, 20 to 50%.
RLDYITAEI had a peptide exchange yield of 50 to 75%.
In turn, QLLPVSNVVSV registered a peptide exchange yield of 50 to 75%.
To ALVSTIIMV belongs 10 to 20%; to GLVETELQL, 50 to 75%.
For FLYIRQLAI the value was 50 to 75%; for ILARDILEI, 50 to 75%; for FLLNLQNCHL, ≥ 75%.
For the molecule YLFEEAISM, the peptide exchange yield lay in the range of 50 to 75%.
ALLNLLESA yielded a peptide exchange yield of 50 to 75%.
For ATYSGLESQSV the value was 20 to 50%.
ILGDILLKV yielded a peptide exchange yield of 50 to 75%.
Consider FLQDSKVIFV, for which the peptide exchange yield was in the range of 50 to 75%.
The molecule ALWDPVIEL displayed a peptide exchange yield of 50 to 75%.
Regarding GIIDINVRL, the peptide exchange yield lay in the range of 20 to 50%.
For ILQERELLPV the value was 50 to 75%; for QLIPKLIFL, 50 to 75%; for NLWSVDGEVTV, 50 to 75%.
For GLLESGRHYL the value was 50 to 75%.
On to FLGGLSPGV, for which the peptide exchange yield lay within 50 to 75%.
For NLLDPGSSYLL the value was 50 to 75%; for KLKDRLPSI, 20 to 50%.
